Here are results for 2 molecules from patent US8692070B2, “Plants with improved nitrogen utilization and stress tolerance” (Iowa Corn Promotion Board, priority 2009, dated 2014).

Holding throughout (format): biochemical, Brevibacillus laterosporus
Test [1] relates to NAGK enzyme. Kind of test: NAGK enzyme assay, titration with arginine. Particulars: NAGK 100 ng/mL; for A540 nm: 70 mM NAG, 30 minutes 37° C., no-arginine control 0.284. How it is done: (§1) The NAGK enzyme assay was adapted from the method of Denes (1970). Product formation was quantified using a Spectramax 190 spectrophotometer at 540 nm.
The following master mix for NAGK in vitro enzyme assays was prepared for the purpose of determining the effect of arginine on NAGK enzyme activity: 50 mM Tris; final pH was 5.5;100 mM hydroxylamine (NH2OH); 10 mM MgCl2; 7 mM ATP; 70 mM NAG.
This master mix was subdivided into individual wells in a 96-well plate (200 uL/well final volume), and then varying concentrations of arginine (0.15 mM to 10 mM) were then added to individual wells. The enzyme reactions were then initiated by addition of NAGK enzyme (100 ng/mL). Following 30 minutes of incubation at 37° C., the absorbance of each sample was quantified. A control reaction without arginine was prepared an analyzed alongside.

For test [2], the system named is NAGK enzyme. The experiment in a line: NAGK enzyme assay, titration with substrate (NAG). The note with it: 1000 ng/mL NAGK, 1 hour 37° C., no-substrate control (0.041) subtracted. As for the experimental part: as §1
The following master mix for NAGK in vitro enzyme assays was prepared for the purpose of titrating the substrate (NAG) into the reaction: 50 mM Tris; final pH was 5.5; 100 mM hydroxylamine (NH2OH); 10 mM MgCl2; 7 mM ATP; 1000 ng/mL NAGK enzyme (from protein extract).
This master mix was subdivided into individual wells in a 96-well plate (200 uL/well final volume), and reactions were then initiated by adding various concentrations of the substrate NAG into individual sample wells. The NAG concentrations ranged from 1.6 mM up to 100 mM. Following 1 hour of incubation at 37° C., the absorbance of each sample was quantified. A control reaction without substrate was prepared an analyzed alongside.

Test [3] has as its system NAGK enzyme. The experiment in a line: NAGK enzyme assay, titration with NAGK enzyme. Particulars: 70 mM NAG, 1 hour 37° C.; for A540 nm: buffer control (0.040) subtracted. How it is done:
NAGK overexpression vector pAX4389 was transformed into electrocompetent E. coli cells (BL21 *DE3, Invitrogen) and single colonies were obtained by selection on the antibiotic kanamycin. An individual colony was then grown in liquid medium (LB broth) until the culture absorbance (at 600 nm) reached 0.6, and then 0.5 mM IPTG was added to induce expression from the T7 promoter. Induction was carried out overnight at 16° C. The following day, the induced culture was centrifuged and the pellet was frozen for two hours at −20° C. After thawing on ice, the pellet was resuspended in […] of lysis buffer (50 mM Hepes, pH 7.0, 50 mM NaCl), treated with Lysozyme (Novagen) at room temperature for 30 minutes, and then sonicated to lyse the cells. Insoluble material was separated from the soluble protein extract through centrifugation. This protein extract was then stored in an ice bucket, and NAGK enzyme assays were prepared a short time later. As a negative control, a control vector was prepared alongside that directed the overexpression of a bacterial EPSPS enzyme in the same base vector (pRSF-1b). This vector was likewise transformed into the same E. coli cell line and a transformant colony was selected for protein overexpression and a protein extract was prepared alongside NAGK.
as §1
A master mix for the NAGK in vitro reaction was prepared with the following components: 50 mM Tris, pH 8.0; final pH of the master mix was 5.5; 100 mM hydroxylamine (NH2OH); 10 mM MgCl2; 7 mM ATP; 70 mM N-acetylglutamate (NAG).
This master mix was subdivided into individual wells in a 96-well plate (200 uL/well final volume), and reactions were then initiated by adding various concentrations of NAGK protein extract into individual sample wells. Following 1 hour of incubation at 37° C., the absorbance of each sample was quantified. The quantity of NAGK protein in the extract was estimated by loading dilutions of the extract on a SDS-polyacrylamide gel alongside known concentrations of a bovine serum albumin standard, and then staining the gel with Coomassie protein stain (Simply Blue, Invitrogen).
By this method, it was observed that addition of NAGK protein extract at concentrations as low as 1 ng/mL generated an absorbance product at 540 nm. The absorbance results from the enzyme product (N-actylglutamyl-5-phosphate) reacting with hydroxylamine to create the absorbent compound N-acetyglutamyl-5-hydroxamate. The graph (FIG. 1) and table (Table 3) show the absorbance at each of 6 different concentrations of NAGK protein. The baseline absorbance generated by a buffer control (A540=0.04) was subtracted from each NAGK absorbance value.

On to `N=C(N)NCCC[C@H](N)C(=O)O` [Arginine, arginine], for which the A540 nm in test [1] (Arginine 0.16 mM) is 0.291; in test [1] (Arginine 0.31 mM), 0.259; in test [1] (Arginine 0.63 mM), 0.263; in test [1] (Arginine 1.25 mM), 0.237; in test [1] (Arginine 2.5 mM), 0.257; in test [1] (Arginine 5 mM), 0.266. Besides, the A540 nm in test [1] (Arginine 10 mM) is given as 0.287. Moreover, in test [1] (arginine 0.15 mM to 10 mM), the “effect of arginine on product formation by the NAGK enzyme” value is recorded as “insensitive”.

B1: NAGK: arginine-insensitive N-acetyl glutamate kinase (SEQ ID NO:2) from Brevibacillus laterosporus, 6-histidine tagged, E. coli protein extract (protein)
chain: MLHEVMVIKCGGSMLEQLPESFYNKLATLQAEGRSIVIVHGGGPAINQMLEQLKIEPTFSNGLRVTDEPTMQAVEMVLSGPINKLVVRKLLHAGGKAWGLSGVDGSLLQAVEKTQGLGLVGSITVVDQAPLQLLLSNGYIPVVSPIAVSEDGRTRYNCNADTVAGAIASALGAKQLLMLTDVPGIWAENELGEKQLLPTVTTEDIQLMMKNQIITGGMIPKVQAALDALAQGVQEVVICKGEAETLDGVVKGMAVGTSISAEMSRGQDSQAFISNKV
modifications: Zea mays
Consider B1, for which the A540 nm is reported as 0.07 in test [2] (NAG 1.6 mM); 0.13 in test [2] (NAG 3.1 mM); 0.0212 in test [2] (NAG 6.3 mM); 0.313 in test [2] (NAG 12.5 mM); 0.411 in test [2] (NAG 25 mM); 0.515 in test [2] (NAG 50 mM). In addition, the A540 nm in test [2] (NAG 100 mM) came to 0.57; in test [3] (NAGK 1 ng/mL), 0.001; in test [3] (NAGK 3.9 ng/mL) it was 0.002; in test [3] (NAGK 15.6 ng/mL), 0.039; in test [3] (NAGK 62.5 ng/mL), 0.0159; in test [3] (NAGK 250 ng/mL) it was 0.518. Besides, the A540 nm in test [3] (NAGK 1000 ng/mL) stood at 0.872. In addition, in test [3], the “lowest concentration of NAGK protein extract that generated an absorbance product at 540 nm” value turned out to be 1 ng/mL.
